Data reported in patent US20240384323A1, “METHOD FOR DETERMINING PROTEASE ACTIVITY IN A BIOLOGICAL SAMPLE” (CytomX Therapeutics, Inc., priority 2021, published 2024).

Molecular target: T1, IQ Probe (internally quenched linear polypeptide containing the S01 substrate)
T1 chain: LSGRSDNH

B1: Recombinant human MT-SP1 (membrane type serine protease 1; R&D Systems 3946-SEB) (protein)
chain: VVGGTDADEGEWPWQVSLHALGQGHICGASLISPNWLVSAAHCYIDDRGFRYSDPTQWTAFLGLHDQSQRSAPGVQERRLKRIISHPFFNDFTFDYDIALLELEKPAEYSSMVRPICLPDASHVFPAGKAIWVTGWGHTQYGGTGALILQKGEIRVINQTTCENLLPQQITPRMMCVGFLSGGVDSCQGDSGGPLSSVEADGRIFQAGVVSWGDGCAQRNKPGVYTRLPLFRDWIKENTGV
Q: How did the “kcat/KM of the S01 substrate, IQ Probe relative to C225-S01” value turn out when B1 was run?
A: Its value is 4.6× and 3.5× times, respectively.
